# According to US20110306546A1, “COMPOSITIONS FOR INCREASING HAIR GROWTH AND DECREASING HAIR LOSS” (ALVI ARMANI GENOMICS INC., priority 2010, published 2011):
# B1: BMP-6: bone morphogenesis protein-6 (protein, UniProt P22004 375-513, looked up)
# Bone morphogenetic protein 6: SASSRRRQQSRNRSTQSQDVARVSSASDYNSSELKTACRKHELYVSFQDLGWQDWIIAPKGYAANYCDGECSFPLNAHMNATNHAIVQTLVHLMNPEYVPKPCCAPTKLNAISVLYFDDNSNVILKKYRNMVVRACGCH
# B2: Wnt: Wnt-3a growth factor (protein, UniProt P56704 19-352, looked up)
# Protein Wnt-3a: SYPIWWSLAVGPQYSSLGSQPILCASIPGLVPKQLRFCRNYVEIMPSVAEGIKIGIQECQHQFRGRRWNCTTVHDSLAIFGPVLDKATRESAFVHAIASAGVAFAVTRSCAEGTAAICGCSSRHQGSPGKGWKWGGCSEDIEFGGMVSREFADARENRPDARSAMNRHNNEAGRQAIASHMHLKCKCHGLSGSCEVKTCWWSQPDFRAIGDFLKDKYDSASEMVVEKHRESRGWVETLRPRYTYFKVPTERDLVYYEASPNFCEPNPETGSFGTRDRTCNVSSHGIDGCDLLCCGRGHNARAERRREKCRCVFHWCCYVSCQECTRVYDVHTCK
# B3: Nog: secreted polypeptide noggin, binds and inactivates TGF-beta superfamily signaling proteins (protein, UniProt Q13253 28-232, looked up)
# Noggin: QHYLHIRPAPSDNLPLVDLIEHPDPIFDPKEKDLNETLLRSLLGGHYDPGFMATSPPEDRPGGGGGAAGGAEDLAELDQLLRQRPSGAMPSEIKGLEFSEGLAQGKKQRLSKKLRRKLQMWLWSQTFCPVLYAWNDLGSRFWPRYVKVGSCFSKRSCSVPEGMVCKPSKSVHLTVLRWRCQRRGGQRCGWIPIQYPIISECKCSC
# B4: Eph: member of the Ephrin family, binds to the Eph receptor (protein, UniProt P52797 23-214, looked up)
# Ephrin-A3: QGPGGALGNRHAVYWNSSNQHLRREGYTVQVNVNDYLDIYCPHYNSSGVGPGAGPGPGGGAEQYVLYMVSRNGYRTCNASQGFKRWECNRPHAPHSPIKFSEKFQRYSAFSLGYEFHAGHEYYYISTPTHNLHWKCLRMKVFVCCASTSHSGEKPVPTLPQFTMGPNVKINVLEDFEGENPQVPKLEKSISG
# B5: FGF10: FGF-10, also known as keratinocyte growth factor (KGF2) (protein, UniProt O15520 38-208, looked up)
# Fibroblast growth factor 10: QALGQDMVSPEATNSSSSSFSSPSSAGRHVRSYNHLQGDVRWRKLFSFTKYFLKIEKNGKVSGTKKENCPYSILEITSVEIGVVAVKAINSNYYLAMNKKGKLYGSKEFNNDCKLKERIEENGYNTYASFNWQHNGRQMYVALNGKGAPRRGQKTRRKNTSAHFLPMVVHS
# Tested on: Hair follicles (HF)
# Experiment: Hair follicle (HF) explant growth assay
# Format: cell-based, human
# Conditions: HF elongation after 7-8 days; 20 ng/ml of each growth factor, hypoxanthine 2 μM; mean of 6-8 independent experiments
# Experimental: Hair follicles (HF) were extracted from the occipital area of 6-8 individuals with hair loss. The HFs were processed to equivalent lengths and cultured in William's E medium supplemented with 100 units/ml penicillin G, 100 μg/ml streptomycin, 0.25 μg/ml amphotericin B, […], 1 ng/ml hydrocortisone; basic medium or control medium or basic medium supplemented with 20 ng/ml of each of IGF-1, FGF-2, PDGF, Wnt-3A (Wnt), Noggin (Nog), Ephrin A3 (Eph), SHH and BMP-6 as well as hypoxanthine (Hyx) at 2 μM final concentration. The “GF10 cocktail” or “GF10” includes all nine growth factors and hypoxanthine while the “GF7 cocktail” or “GF7” contains six growth factors (all growth factors of GF10 except for FGF-10, Eph and SHH) and hypoxanthine. Growth promotion was measured as elongation of the HF at the end of 7-8 days. All growth factors and hypoxanthine promoted growth individually and in combination (FIG. 1 and Table 1).
row,Molecule,Increase in growth (% control) Mean
1,B1,46.44 % control
2,B2,104.817 % control
3,B3,51.45 % control
4,B4,57.61 % control
5,B5,48.55 % control
